Here are results for one molecule from patent US20170233488A1 (University of California, published 2017).

The target of the test is T1, ALCAM/MEMD/CD166 (human, UniProt Q13740 28-583).
T1 construct: whole, on cells; Endogenous antigen on Du-145 prostate cancer cells (FACS) and in lysates of surface-biotinylated Du-145 cells (IP and Western blot)
T1 sequence (looked up): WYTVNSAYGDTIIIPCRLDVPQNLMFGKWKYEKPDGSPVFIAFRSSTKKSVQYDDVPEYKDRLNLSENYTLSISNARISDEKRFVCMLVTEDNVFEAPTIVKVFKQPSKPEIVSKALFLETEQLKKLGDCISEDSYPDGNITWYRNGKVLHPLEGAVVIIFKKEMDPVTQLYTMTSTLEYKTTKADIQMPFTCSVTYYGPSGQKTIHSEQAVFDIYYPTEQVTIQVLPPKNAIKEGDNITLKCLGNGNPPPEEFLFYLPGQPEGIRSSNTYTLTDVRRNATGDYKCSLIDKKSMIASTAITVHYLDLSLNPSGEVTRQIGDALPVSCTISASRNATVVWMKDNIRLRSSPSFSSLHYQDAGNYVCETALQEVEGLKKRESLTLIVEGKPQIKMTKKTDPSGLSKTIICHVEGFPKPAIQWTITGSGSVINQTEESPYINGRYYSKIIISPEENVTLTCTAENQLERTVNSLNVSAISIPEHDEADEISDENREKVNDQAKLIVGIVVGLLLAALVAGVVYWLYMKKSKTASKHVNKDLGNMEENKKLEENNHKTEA
Description: FACS on Du-145 cells, equilibrium binding at 4 C overnight, apparent KD by curve fitting of MFI. On the procedure:
Monodispersed DU-145 cells were incubated with varying concentrations of IgG1s at 4° C. overnight to allow equilibrium binding. After washing, bound human IgG1 s were detected by R-phycoerythrin-conjugated goat anti-human secondary antibody and analyzed by FACS. Mean fluorescence intensity (MFI) values were plotted and the KD was determined by curve fitting using GraphPad (GraphPad Software, San Diego, Calif.).

B1: anti-ALCAM IgG1 (585II41.1, also known as H3) (antibody, V domains shown)
VH: QVQLVESGGGLVQPGGSLRLSCAASGFTFSSYAMSWVRQAPGKGLEWVSAISGSGGSTYYADSVKGRFTISRDNSKDTLYLQMNSLRAEDTAVYYCASRSLLDYWGQGTLVTVSS
VL: NFMLTQDPAVSVALGQTVRITCQGDSLRSYYASWYQQKPGQAPLLVIYGKNNRPSGIPDRFSGSSSGNTASLTITGAQAEDEADYYCNSRDSSGNPVFGGGTKVTVL
notes: also called H3 IgG; H3 IgG1
B1: the Kd stood at 4.4 pM.
